{
  "source": "paper PMC9309889",
  "about": "“Cryo-EM Structure of an Atypical Proton-Coupled Peptide Transporter: Di- and Tripeptide Permease C” (Frontiers in Molecular Biosciences, 2022)",
  "proteins": {"B1": {"name": "Di- and tripeptide permease C (DtpC), wild type (natural protein, Escherichia coli, UniProt P39276 1-485, looked up)", "chain": "MKTPSQPRAIYYIVAIQIWEYFSFYGMRALLILYLTHQLGFDDNHAISLFSAYASLVYVTPILGGWLADRLLGNRTAVIAGALLMTLGHVVLGIDTNSTFSLYLALAIIICGYGLFKSNISCLLGELYDENDHRRDGGFSLLYAAGNIGSIAAPIACGLAAQWYGWHVGFALAGGGMFIGLLIFLSGHRHFQSTRSMDKKALTSVKFALPVWSWLVVMLCLAPVFFTLLLENDWSGYLLAIVCLIAAQIIARMMIKFPEHRRALWQIVLLMFVGTLFWVLAQQGGSTISLFIDRFVNRQAFNIEVPTALFQSVNAIAVMLAGVVLAWLASPESRGNSTLRVWLKFAFGLLLMACGFMLLAFDARHAAADGQASMGVMISGLALMGFAELFIDPVAIAQITRLKMSGVLTGIYMLATGAVANWLAGVVAQQTTESQISGMAIAAYQRFFSQMGEWTLACVAIIVVLAFATRFLFSTPTNMIQESND", "notes": "Di- and tripeptide permease C (DtpC, YjdL) of Escherichia coli; full-length cDNA amplified from the E. coli genome, cloned into pNIC-CTHF; The His tag was cut off with TEV protease; also called YjdL; DtpC WT; source: E. coli C41(DE3), purified in DDM (Ni-NTA, TEV cleavage, negative IMAC, SEC); not shown: His-Tag, C-terminal, cleaved"}},
  "target": "the molecule itself",
  "assay": "cryo-EM structure; DtpC-Nb26 complex in 0.015% DDM, 100 mM NaCl, 10 mM HEPES pH 7.5, 0.5 mM TCEP; inverted dimer at 3.0 Å, local focused refinement on one transporter at 2.7 Å",
  "data": [
    {"protein": "B1", "values": [
      {"measurement": "stoichiometry N", "result": 2}
    ]}
  ]
}
